Results reported in patent US20140314793A1 (BIOINVENT INTERNATIONAL, published 2014).

What was measured:
[1] = biological target: T1, intercellular cell adhesion molecule-1 (ICAM-1) on the surface of human cells (human, UniProt P05362 28-532); assay: FACS of bone marrow cells, patient 10
T1 construct: whole, on cells; Endogenous antigen; also called CD54

[2] = biological target: T1, intercellular cell adhesion molecule-1 …; assay: 125I-IgG saturation binding on Ramos cells at 4° C., Rosenthal-Scatchard plot
Description: (§1) Specific binding was determined by subtracting binding in the presence of unlabeled competing protein from total binding.
(§2) Antibody affinity constants (Kd values) and epitope numbers per cell were determined from Scatchard plot analysis according to Rosenthal et al. (Anal. Biochem. (1967) 20:525-532); Bylund and Yamamura (Methods in Neurotransmitter Analysed, New York: Raven Press Ltd., 1990); and Marquardt (J. Soc. Indust. Appl. Math. (1963) 11:431-441), as previously described (Brix et al., J. Clin. Invest. (1998) 102:283-293).
(§3) The specific binding of [¹²⁵I]IgG to the cell surface was calculated by subtracting non-specific binding (binding in the presence of excess unlabelled IgG) from the total binding.

[3] = biological target: T1, intercellular cell adhesion molecule-1 …; assay: FACS of bone marrow cells, patient 17
[4] = biological target: T1, intercellular cell adhesion molecule-1 …; assay: flow cytometry on patient bone marrow cells
[5] = biological target: T1, intercellular cell adhesion molecule-1 …; assay: FACS of bone marrow cells, patient 20
[6] = biological target: T1, intercellular cell adhesion molecule-1 …; assay: FACS of bone marrow cells, patient 14
[7] = biological target: T1, intercellular cell adhesion molecule-1 …; assay: FACS of bone marrow cells, patient 15
[8] = biological target: T1, intercellular cell adhesion molecule-1 …; assay: 125I-IgG saturation binding, Rosenthal-Scatchard plot (legend of FIG. 5; Ramos cells in the panels, 'Raji cells' at the end of the sentence); legend of FIG. 5; Ramos cells (right panels, IgG B11), though the sentence ends '(Raji cells)'
Description: (§4) Analysis was performed in triplicates.
as §2, §3

[9] = biological target: T1, intercellular cell adhesion molecule-1 …; assay: FACS of bone marrow cells, patient 6
[10] = biological target: T1, intercellular cell adhesion molecule-1 …; assay: FACS of bone marrow cells, patient 19:1
[11] = biological target: T1, intercellular cell adhesion molecule-1 …; assay: FACS of bone marrow cells, patient 19:2
[12] = biological target: T2, ICAM-3 (recombinant) (UniProt P32942 30-485, limits assumed); assay: dose-dependent binding to recombinant protein (FIG. 12C b)
T2 sequence (looked up): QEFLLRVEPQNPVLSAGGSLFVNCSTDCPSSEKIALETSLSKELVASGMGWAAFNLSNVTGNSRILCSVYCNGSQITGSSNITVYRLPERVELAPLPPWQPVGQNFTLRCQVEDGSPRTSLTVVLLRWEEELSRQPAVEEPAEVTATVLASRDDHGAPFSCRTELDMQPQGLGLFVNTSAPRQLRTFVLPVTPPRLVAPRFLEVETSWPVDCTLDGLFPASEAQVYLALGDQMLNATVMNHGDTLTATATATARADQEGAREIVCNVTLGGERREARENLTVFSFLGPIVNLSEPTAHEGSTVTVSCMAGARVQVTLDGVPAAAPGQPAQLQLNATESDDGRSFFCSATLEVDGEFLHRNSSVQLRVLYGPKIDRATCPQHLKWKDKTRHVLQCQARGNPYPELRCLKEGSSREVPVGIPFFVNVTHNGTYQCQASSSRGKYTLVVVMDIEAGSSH

[13] = biological target: T3, ICAM-2 (recombinant) (UniProt P13598 25-223, limits assumed); assay: as above
T3 sequence (looked up): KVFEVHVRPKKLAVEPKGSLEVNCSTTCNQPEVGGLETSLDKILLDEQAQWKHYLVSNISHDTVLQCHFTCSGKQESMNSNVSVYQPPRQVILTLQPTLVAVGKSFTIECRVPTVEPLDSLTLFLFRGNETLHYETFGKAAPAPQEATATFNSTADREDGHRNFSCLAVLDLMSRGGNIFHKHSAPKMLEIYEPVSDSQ

[14] = biological target: T1, intercellular cell adhesion molecule-1 …; assay: FACS of bone marrow cells, patient 11
[15] = biological target: T1, intercellular cell adhesion molecule-1 …; assay: FACS of bone marrow cells, patient 9
[16] = biological target: T1, intercellular cell adhesion molecule-1 …; assay: FACS of bone marrow cells, patient 2
[17] = biological target: T1, intercellular cell adhesion molecule-1 …; assay: FACS of bone marrow cells, patient 4
[18] = biological target: T1, intercellular cell adhesion molecule-1 …; assay: FACS of bone marrow cells, patient 13
[19] = biological target: T1, intercellular cell adhesion molecule-1 …; assay: FACS of bone marrow cells, patient 7
[20] = biological target: T1, intercellular cell adhesion molecule-1 …; assay: FACS of bone marrow cells, patient 5
[21] = biological target: T1, intercellular cell adhesion molecule-1 …; assay: FACS of bone marrow cells, patient 16
[22] = biological target: T1, intercellular cell adhesion molecule-1 …; assay: FACS of tumor cells incubated with serially diluted AF647-BI-505 after FcγR pre-block with human IgG (receptor occupancy)
Description: The experiment was repeated three times and mean MFI values were calculated and plotted as a function of antibody concentration. […] The curve was fitted using a five-parameter log-log curve and XLfit software. […] Cells received treatment in triplicate and the experiment was repeated three to five times. […] In vitro PCD and in vivo anti-tumor activity were plotted as a function of receptor occupancy using curve fitting equations and data generated and described above.

[23] = biological target: T1, intercellular cell adhesion molecule-1 …; assay: FACS of bone marrow cells, patient 8
[24] = biological target: T1, intercellular cell adhesion molecule-1 …; assay: saturation binding of radioiodinated IgG to Ramos cells, unlabelled IgG subtracted
Description: as §1, §4, §3

[25] = biological target: T1, intercellular cell adhesion molecule-1 …; assay: FACS of bone marrow cells, patient 21
[26] = biological target: T1, intercellular cell adhesion molecule-1 …; assay: flow cytometry on ARH-77 cells, % of maximal cell ICAM-1 binding
[27] = biological target: T4, recombinant ICAM-1 (UniProt P05362 28-480); assay: ELISA on recombinant ICAM-1, luminescence
T4 construct: also called recombinant ICAM-1 protein
T4 sequence (P05362 28-480 limits assumed): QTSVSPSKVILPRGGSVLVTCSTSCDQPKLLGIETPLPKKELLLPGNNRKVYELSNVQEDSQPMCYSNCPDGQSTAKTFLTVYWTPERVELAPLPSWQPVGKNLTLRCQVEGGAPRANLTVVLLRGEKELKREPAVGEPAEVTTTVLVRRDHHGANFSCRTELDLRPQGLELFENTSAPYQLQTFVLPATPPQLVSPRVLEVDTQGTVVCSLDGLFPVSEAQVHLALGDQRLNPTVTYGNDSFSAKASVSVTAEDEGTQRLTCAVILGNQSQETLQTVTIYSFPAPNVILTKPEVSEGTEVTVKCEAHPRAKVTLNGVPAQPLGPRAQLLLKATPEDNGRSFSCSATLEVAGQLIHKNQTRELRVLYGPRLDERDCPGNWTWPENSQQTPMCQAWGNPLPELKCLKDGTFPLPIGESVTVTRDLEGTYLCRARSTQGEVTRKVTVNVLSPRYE

[28] = biological target: T1, intercellular cell adhesion molecule-1 …; assay: flow cytometry, AF647 Zenon-labelled IgG
[29] = biological target: T1, intercellular cell adhesion molecule-1 …; assay: flow cytometry on myeloma cells of one patient, relapse versus diagnosis
[30] = biological target: T1, intercellular cell adhesion molecule-1 …; assay: FACS of bone marrow cells, patient 22
[31] = biological target: T1, intercellular cell adhesion molecule-1 …; assay: FACS of bone marrow cells, patient 18
[32] = biological target: T1, intercellular cell adhesion molecule-1 …; assay: FACS of bone marrow cells, patient 19:3
[33] = biological target: T1, intercellular cell adhesion molecule-1 …; assay: FACS of bone marrow cells, patient 1
[34] = biological target: T1, intercellular cell adhesion molecule-1 …; assay: FACS of bone marrow cells, patient 12

T1 sequence (P05362 28-532): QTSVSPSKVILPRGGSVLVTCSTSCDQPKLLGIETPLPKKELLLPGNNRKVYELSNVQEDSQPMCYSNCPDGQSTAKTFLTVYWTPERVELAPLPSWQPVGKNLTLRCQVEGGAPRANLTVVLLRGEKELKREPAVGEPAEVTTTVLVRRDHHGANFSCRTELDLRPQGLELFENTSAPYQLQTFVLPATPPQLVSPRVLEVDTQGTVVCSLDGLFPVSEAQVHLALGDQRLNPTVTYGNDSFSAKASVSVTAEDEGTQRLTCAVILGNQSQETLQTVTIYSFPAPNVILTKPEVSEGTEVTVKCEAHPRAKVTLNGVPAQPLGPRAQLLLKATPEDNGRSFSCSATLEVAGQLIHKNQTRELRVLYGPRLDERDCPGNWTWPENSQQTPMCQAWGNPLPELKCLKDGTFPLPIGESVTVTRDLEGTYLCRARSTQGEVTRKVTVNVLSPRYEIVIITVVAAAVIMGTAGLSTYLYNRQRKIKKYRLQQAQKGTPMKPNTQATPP

B1: B11 IgG1 (BI-505), fully human anti-ICAM-1 antibody (antibody, V domains shown)
VH: EVQLLESGGGLVQPGGSLRLSCAASGFTFSNAWMSWVRQAPGKGLEWVAFIWYDGSNKYYADSVKGRFTISRDNSKNTLYLQMNSLRAEDTAVYYCARYSGWYFDYWGQGTLVTVSS
VL: QSVLTQPPSASGTPGQRVTISCTGSSSNIGAGYDVHWYQQLPGTAPKLLIYDNNNRPSGVPDRFSGSKSGTSASLAISGLRSEDEADYYCQSYDSSLSAWLFGGGTKLTVL
notes: That 6 is VH and 8 is VL follows only from the order 'VH and VL'; also called IgG B11
[1]
  fold increase of BI-505 epitope on MM cells compared to normal B cells: 4 fold
[2]
  Kd: ~0.2 nM
[3]
  fold increase of BI-505 epitope on MM cells compared to normal B cells: 11 fold
[4]
  fold expression of the epitope, myeloma cells versus normal B cells: 10 fold
[5]
  fold increase of BI-505 epitope on MM cells compared to normal B cells: 27 fold
[6]
  fold increase of BI-505 epitope on MM cells compared to normal B cells: 5 fold
[7]
  fold increase of BI-505 epitope on MM cells compared to normal B cells: 27 fold
[8]
  Kd: ~0.3 nM
[9]
  fold increase of BI-505 epitope on MM cells compared to normal B cells: 9 fold
[10]
  fold increase of BI-505 epitope on MM cells compared to normal B cells: 10 fold
[11]
  fold increase of BI-505 epitope on MM cells compared to normal B cells: 6 fold
[12]
  binding result: no binding
[13]
  binding result: no binding
[14]
  fold increase of BI-505 epitope on MM cells compared to normal B cells: 10 fold
[15]
  fold increase of BI-505 epitope on MM cells compared to normal B cells: 18 fold
[16]
  fold increase of BI-505 epitope on MM cells compared to normal B cells: 8 fold
[17]
  fold increase of BI-505 epitope on MM cells compared to normal B cells: 9 fold
[18]
  fold increase of BI-505 epitope on MM cells compared to normal B cells: 47 fold
[19]
  fold increase of BI-505 epitope on MM cells compared to normal B cells: 45 fold
[20]
  fold increase of BI-505 epitope on MM cells compared to normal B cells: 9 fold
[21]
  fold increase of BI-505 epitope on MM cells compared to normal B cells: 3 fold
[22]
  EC50 (read off the curve): ~0.4 µg/mL
[23]
  fold increase of BI-505 epitope on MM cells compared to normal B cells: 12 fold
[24]
  EC50 (read off the curve): ~0.3 nM
[25]
  fold increase of BI-505 epitope on MM cells compared to normal B cells: 4 fold
[26]
  EC50 (read off the curve): ~0.05 µg/mL
[27]
  EC50 (read off the curve): ~0.3 nM
[28]
  fold binding, Ramos versus NK cells: 23 fold
  fold binding, Ramos versus monocyte cells: 3.7 fold
  fold binding, Ramos versus peripheral blood B lymphocytes: 8.3 fold
[29]
  fold expression of the epitope after first relapse: 2 fold
[30]
  fold increase of BI-505 epitope on MM cells compared to normal B cells: 6 fold
[31]
  fold increase of BI-505 epitope on MM cells compared to normal B cells: 8 fold
[32]
  fold increase of BI-505 epitope on MM cells compared to normal B cells: 4 fold
[33]
  fold increase of BI-505 epitope on MM cells compared to normal B cells: 55 fold
[34]
  fold increase of BI-505 epitope on MM cells compared to normal B cells: 16 fold

B2: BI-505 IgG4 (antibody, V domains shown)
VH: B1 VH
VL: QSVLTQPPSASGTPGQRVTISCTGSSSNIGAGYDVHWYQQLPGTAPKLLIYDNNNRPSGVPDRFSGSKSGTSASLAISGLRSEDEADYYCQSYDSSLSAWLFGGGTKLTVLG
[26]
  EC50 (read off the curve): ~0.05 µg/mL
[27]
  EC50 (read off the curve): ~0.2 nM

B3: BI-505 IgG1 N297Q (antibody, V domains shown)
VH: B1 VH
VL: B2 VL
notes: also called Fc-mut; BI-505N297Q
[26]
  EC50 (read off the curve): ~0.05 µg/mL
[27]
  EC50 (read off the curve): ~0.2 nM
